Experimental data from publication PMC7337323 (Nature structural & molecular biology, 2020).

T1: full-length CsoS2 (H. neapolitanus) (Halothiobacillus neapolitanus, UniProt O85041 1-869)
T1 sequence (looked up): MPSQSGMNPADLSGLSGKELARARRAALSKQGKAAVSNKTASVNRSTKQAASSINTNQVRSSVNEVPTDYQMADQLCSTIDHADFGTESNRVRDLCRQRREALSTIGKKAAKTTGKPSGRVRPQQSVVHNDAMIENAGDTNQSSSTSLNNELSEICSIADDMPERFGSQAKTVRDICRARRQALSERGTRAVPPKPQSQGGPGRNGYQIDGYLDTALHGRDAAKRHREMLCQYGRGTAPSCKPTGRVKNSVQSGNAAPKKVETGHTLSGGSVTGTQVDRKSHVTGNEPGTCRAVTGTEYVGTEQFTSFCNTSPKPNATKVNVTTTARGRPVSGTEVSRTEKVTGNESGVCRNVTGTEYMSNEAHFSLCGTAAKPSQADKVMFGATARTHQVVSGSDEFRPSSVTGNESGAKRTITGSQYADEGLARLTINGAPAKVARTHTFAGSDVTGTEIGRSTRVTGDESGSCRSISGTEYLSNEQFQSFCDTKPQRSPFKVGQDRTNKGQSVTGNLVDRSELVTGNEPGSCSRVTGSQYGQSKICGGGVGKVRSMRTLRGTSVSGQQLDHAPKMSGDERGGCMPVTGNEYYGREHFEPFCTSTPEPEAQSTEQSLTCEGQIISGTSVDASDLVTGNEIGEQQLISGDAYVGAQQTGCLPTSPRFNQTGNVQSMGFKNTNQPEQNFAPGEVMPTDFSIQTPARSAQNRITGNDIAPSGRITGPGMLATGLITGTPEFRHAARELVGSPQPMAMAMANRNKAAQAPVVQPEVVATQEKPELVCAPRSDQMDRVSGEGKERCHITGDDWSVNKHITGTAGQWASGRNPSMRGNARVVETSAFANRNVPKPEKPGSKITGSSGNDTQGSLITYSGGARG

B1: wild-type H. neapolitanus Rubisco (CbbL8S8) (complex, Halothiobacillus neapolitanus)
chain 1: MAVKKYSAGVKEYRQTYWMPEYTPLDSDILACFKITPQPGVDREEAAAAVAAESSTGTWTTVWTDLLTDMDYYKGRAYRIEDVPGDDAAFYAFIAYPIDLFEEGSVVNVFTSLVGNVFGFKAVRGLRLEDVRFPLAYVKTCGGPPHGIQVERDKMNKYGRPLLGCTIKPKLGLSAKNYGRAVYECLRGGLDFTKDDENINSQPFMRWRDRFLFVQDATETAEAQTGERKGHYLNVTAPTPEEMYKRAEFAKEIGAPIIMHDYITGGFTANTGLAKWCQDNGVLLHIHRAMHAVIDRNPNHGIHFRVLTKILRLSGGDHLHTGTVVGKLEGDRASTLGWIDLLRESFIPEDRSRGIFFDQDWGSMPGVFAVASGGIHVWHMPALVNIFGDDSVLQFGGGTLGHPWGNAAGAAANRVALEACVEARNQGRDIEKEGKEILTAAAQHSPELKIAMETWKEIKFEFDTVDKLDTQNR
chain 2: MAEMQDYKQSLKYETFSYLPPMNAERIRAQIKYAIAQGWSPGIEHVEVKNSMNQYWYMWKLPFFGEQNVDNVLAEIEACRSAYPTHQVKLVAYDNYAQSLGLAFVVYRGN
B2: CbbL (Rubisco large subunit, H. neapolitanus) (natural protein, Halothiobacillus neapolitanus)
chain: B1 chain 1
B3: [N1]-GFP (single CsoS2 N-peptide repeat N1 fused to GFP) (domain or fragment)
chain: PSQSGMNPADLSGLSGKELARARRAALSKQGKAAVSNKTASVNRSTKQAASSINTNQVRSSVNEVPTDYQMADQLCSTIDHADFGTESNRV
modifications: CsoS2 part of Supplementary Table 1 construct; His tag, TEV site, linker, sfGFP and StrepII left out

Tests used:
[1] = target: N*-polyPro (N* consensus peptide on a polyproline II helix); test: BLI
[2] = target: T1, full-length CsoS2 (H. neapolitanus); test: native gel or EMSA
crystal structure = target: the molecule itself; test: crystal structure
[3] = target: B1; test: MST

“wild-type H. neapolitanus Rubisco (CbbL8S8) (from UniProt O85040 1-473; P45686 1-110) (complex)” was tested, and the Kd [1] was 0.1 µM.

B1: binds [2].

B2: binds (crystal structure).

With B3 the Kd [3] was over 1000 µM.
